According to PMC7680125:

Test system: Isw1 alone (Saccharomyces cerevisiae)
Assay: EMSA
Settings: 35 mM Na-HEPES pH 7.8, 5 mM MgCl2, 0.1 mM EGTA, 0.02 M EDTA (so in the source), 70 mM NaCl, 0.1 mg/ml BSA, 5-8% glycerol, 40 uM 2-mercaptoethanol, 30 C, 30 min …

0N70 mononucleosome was tested, and the Kd was 0.0219 µM.
